How the values were obtained:
[1] = molecular target: T1, Alexa488-labeled PARP2-WT (human, UniProt Q9UGN5-2 1-570, Alexa Fluor 488 C5 maleimide (extent of labeling typically between 20 and 80%); labelled residue not stated); experiment: FRET or BRET; Alexa647-labeled HPF1 (acceptor) titrated from 18.5 μM to 0 μM into 1 μM Alexa488-labeled PARP2 (donor) alone or into the preformed PARP2–Nuc165 complex (1 μM / 100 nM); 50 mM Tris-HCl pH 8, 50 mM NaCl, 1 mM MgCl2, 0.1 mM EDTA, 0.1 mM TCEP, 0.01% NP-40; Hill model; settings: both partners purified
T1 construct: human Poly(ADP-ribose) Polymerase 2, isoform 2 cDNA in pET28b; the mutant made from this vector is called full-length; source: E. coli Rosetta2 (DE3) pLysS, purified (HisTrap, heparin, Superdex 200), then labelled

[2] = molecular target: T2, Alexa488-labeled PARP2-QFRD (human, UniProt Q9UGN5-2 1-570, Q112R | F113D, Alexa Fluor 488 C5 maleimide (extent of labeling typically between 20 and 80%); labelled residue not stated); experiment: as above; settings: both partners purified
T2 construct: human Poly(ADP-ribose) Polymerase 2, isoform 2 cDNA in pET28b, Q112R/F113D double point mutant; source: E. coli Rosetta2 (DE3) pLysS, purified (HisTrap, heparin, Superdex 200), then labelled

B1: Alexa647-labeled HPF1 (natural protein, human, UniProt Q9NWY4 1-346, looked up)
chain: MVGGGGKRRPGGEGPQCEKTTDVKKSKFCEADVSSDLRKEVENHYKLSLPEDFYHFWKFCEELDPEKPSDSLSASLGLQLVGPYDILAGKHKTKKKSTGLNFNLHWRFYYDPPEFQTIIIGDNKTQYHMGYFRDSPDEFPVYVGINEAKKNCIIVPNGDNVFAAVKLFLTKKLREITDKKKINLLKNIDEKLTEAARELGYSLEQRTVKMKQRDKKVVTKTFHGAGLVVPVDKNDVGYRELPETDADLKRICKTIVEAASDEERLKAFAPIQEMMTFVQFANDECDYGMGLELGMDLFCYGSHYFHKVAGQLLPLAYNLLKRNLFAEIIEEHLANRSQENIDQLAA
modifications: Alexa Fluor 647 C2 maleimide (extent of labeling typically between 20 and 80%); labelled residue not stated
notes: human HPF1; cDNA amplified by PCR and cloned between the Nde1 and Xho1 sites of pET28a; also called HPF1_Alexa647; HPF1_A647; source: E. coli Rosetta2 (DE3) pLysS, purified (HisTrap, Superdex 75), then labelled
Kd [1]: > 3 µM
Kd [2]: > 10 µM
